Assay results: paper PMC8096850, “Structure of the full-length human Pannexin1 channel and insights into its role in pyroptosis” (Cell Discovery, 2021)

How the values were obtained:
[1] = STED immunofluorescence, THP-1-derived macrophages; conditions: glycan lost; control: overexpressed WT hPANX1
[2] = biological target: the molecule itself; experiment: cryo-EM structure; single-particle cryo-EM of purified hPANX1 at about 8 mg/ml in 20 mM Hepes pH 7.4, 150 mM NaCl, 0.1% digitonin; C7 symmetry; 3.15 Å

Protein	localisation_or_trafficking [1]	stoichiometry N [2]
human Pannexin1 (hPANX1): N255Q (protein) parent chain: MAIAQLATEYVFSDFLLKEPTEPKFKGLRLELAVDKMVTCIAVGLPLLLISLAFAQEISIGTQISCFSPSSFSWRQAAFVDSYCWAAVQQKNSLQSESGNLPLWLHKFFPYILLLFAILLYLPPLFWRFAAAPHICSDLKFIMEELDKVYNRAIKAAKSARDLDMRDGACSVPGVTENLGQSLWEVSESHFKYPIVEQYLKTKKNSNNLIIKYISCRLLTLIIILLACIYLGYYFSLSSLSDEFVCSIKSGILRNDSTVPDQFQCKLIAVGIFQLLSVINLVVYVLLAPVVVYTLFVPFRQKTDVLKVYEILPTFDVLHFKSEGYNDLSLYNLFLEENISEVKSYKCLKVLENIKSSGQGIDPMLLLTNLGMIKMDVVDGKTPMSAEMREEQGNQTAELQGMNIDSETKANNGEKNARQRLLDSSC	changes	
full-length human Pannexin1 with a Strep-tag II inserted after V172 (natural protein, UniProt Q96RD7 1-426, looked up, N-linked glycan at N255 (two N-acetylglucosamine and eight mannose), Pannexin1 (PANX1), Homo sapiens, full length; Homo-heptamer; Met1 is absent from the deposited hPANX1-MD model; The termini and the intracellular linker of the model rest on a locally sharpened map and MD flexible fitting; also called hPANX1; PANX1) MAIAQLATEYVFSDFLLKEPTEPKFKGLRLELAVDKMVTCIAVGLPLLLISLAFAQEISIGTQISCFSPSSFSWRQAAFVDSYCWAAVQQKNSLQSESGNLPLWLHKFFPYILLLFAILLYLPPLFWRFAAAPHICSDLKFIMEELDKVYNRAIKAAKSARDLDMRDGACSVPGVTENLGQSLWEVSESHFKYPIVEQYLKTKKNSNNLIIKYISCRLLTLIIILLACIYLGYYFSLSSLSDEFVCSIKSGILRNDSTVPDQFQCKLIAVGIFQLLSVINLVVYVLLAPVVVYTLFVPFRQKTDVLKVYEILPTFDVLHFKSEGYNDLSLYNLFLEENISEVKSYKCLKVLENIKSSGQGIDPMLLLTNLGMIKMDVVDGKTPMSAEMREEQGNQTAELQGMNIDSETKANNGEKNARQRLLDSSC		7
